Data published in IntAct's records for PubMed 25503564.

B1: Centrosomal protein of 68 kDa (Homo sapiens), Q76N32 (parent)
chain: MALGEEKAEAEASEDTKAQSYGRGSCRERELDIPGPMSGEQPPRLEAEGGLISPVWGAEGIPAPTCWIGTDPGGPSRAHQPQASDANREPVAERSEPALSGLPPATMGSGDLLLSGESQVEKTKLSSSEEFPQTLSLPRTTTICSGHDADTEDDPSLADLPQALDLSQQPHSSGLSCLSQWKSVLSPGSAAQPSSCSISASSTGSSLQGHQERAEPRGGSLAKVSSSLEPVVPQEPSSVVGLGPRPQWSPQPVFSGGDASGLGRRRLSFQAEYWACVLPDSLPPSPDRHSPLWNPNKEYEDLLDYTYPLRPGPQLPKHLDSRVPADPVLQDSGVDLDSFSVSPASTLKSPTNVSPNCPPAEATALPFSGPREPSLKQWPSRVPQKQGGMGLASWSQLASTPRAPGSRDARWERREPALRGAKDRLTIGKHLDMGSPQLRTRDRGWPSPRPEREKRTSQSARRPTCTESRWKSEEEVESDDEYLALPARLTQVSSLVSYLGSISTLVTLPTGDIKGQSPLEVSDSDGPASFPSSSSQSQLPPGAALQGSGDPEGQNPCFLRSFVRAHDSAGEGSLGSSQALGVSSGLLKTRPSLPARLDRWPFSDPDVEGQLPRKGGEQGKESLVQCVKTFCCQLEELICWLYNVADVTDHGTAARSNLTSLKSSLQLYRQFKKDIDEHQSLTESVLQKGEILLQCLLENTPVLEDVLGRIAKQSGELESHADRLYDSILASLDMLAGCTLIPDKKPMAAMEHPCEGV

Variants of: B1
Details: with fbw1a_human BTRC

| Variant | effect of a mutation on the interaction |
| --- | --- |
| S332A | disrupting interaction strength |
| S332A;D337A | disrupting interaction strength |
| D337A | decreasing interaction strength |
